The DeepSol protein solubility set

test: soluble on expression in E. coli; label from the status in PepcDB or PDB records

Row | Sequence | soluble on expression in E. coli
1 | MAHHHHHHMLQRLSHRSVLGYHGAPQVAALRCSLRFGTNIGGSYYQESDTAGTHQMNNDIRLGLVIKPQSTLVELWEQALKAWPTRRFLGSKMWVRGKLGYVWATYESINTEVEAMRTLLHSMGVEKGSRVVVISENRYEWVVVHFATMQLGAHFVALPTNVTPSEAQLVVKSTQSKVLFVETKASYAAIKGWIGRVGQLEHAICFEDQVGEGSYAVAISIAADVPEKTLARTDVRAEDTAMIVFTAGTTGPPKGVMLSHKSIVANVSSVYASLGEALTHSDMFMSLCSWCVAGALTTDLYQALCKGACVCIPPEILEGFQDLPLVNPSVIVSVAQPFQRAYANIVDDILNRRSFTKDLTRFVVGRITENRLMFKKPGRTLQAFSHALLGKFKAQFGSELRVAIIIGHQLTKDQSELMADLDVFVVNTYGFMEAGGLVATDVDVPQRLKALPGLEVRVVNEKNEIVAPGDLGEILIEAPNAMQGYFDVHIDPEEAKNSLVEYGSRTFVRSGDYGTLTGGWITVKGNKDVLITLANSKTVNPLEVEAALTKSPFIKQVFIYGNRHPYVVALVVANTKAIAAHLRKVERRDGVPLVNDREKADCIRAELRRVSQDLPPRAHVRRFAFVDEFTLANGFMTVKMGYARQKIEDHYVHYFEALYDETPKFYGFAVDDYDDLF | soluble
2 | MAHHHHHHMNIALSHIKKQRCARLYSISSSNNMENLSVAIKIHKYEQTENAPNITNYGYCSGFIKNLKINDDIYLTGAHGYFNLPNDAIQKNTNFIFIATGTGISPYISFLKKLFAYDKNNLYNRNSNYTGYITIYYGVYNEDSILYLNELEYFQKMYPNNINIHYVFSYKQNSDATSFYVQDEIYKRKTEFLNLFNNYKCELYICGHKSIRYKVMDILKSHDQFDEKKKKRVHVEVY | not soluble
3 | MSLKKFQHEFWTATSGDLTQRRTPLATPDYQSTSAAAVKIIIDPADRHQPWLGGGAAITDSAAYLLWSVMSAEQRRALLTELFDPDQGGFSSVRVPLGSCDFQSQDFYTYDDVPYGEHDQKLEQFSIGTGQPGAPDATKDLKHIVPVLQEILAINPAVKVIASPWSAPAWMKNTGHLTHGGHLRFGEFTGNGYTEENRFEYIYAQYFIRYIEAYQKLGIPIYGLTIQNEPSNAAHWPAMIWTVPQLADFGYRYLRPALNHSFPDTKLYLLDDSFHALTKPITAEVTPEQAAAFDGLAVHTYSGPYDNLYHANRAYPNWSTIMTERRCMMTDTPEEAAHIMFGIIGNWLVHNGLSMITLWNLALDERGLPNAADSTGREGVVTIDHTTGKVQRNLEYFMLRNFGQDVSVGATVIGSTNYTRDGYTGGLGSVAFLGTAGDIAAHLYNPTAQPIQAAVTINGNGANWQLVTVPPYGTVTLHKSDAPLNTTNVPVDDEFPLNPTPANHSDVAPGQHEGHHHHHH | not soluble
4 | MKLSEIYNFLDQLSPFNIQESWDNSGILLGDRDSEISTVYLSLDIDENIIKEASENSLIITHHPLIFKGLKDLYDKTYPRAFIKEMIYKNISLISMHTNYDLSHLNTYFTEEILGFKISFKDKFLIYVENSMSFEALCDWVKKKLNLQILRVSDCGKKDIKRIAICTGSGGDLISKVDADCFLSGDFKYHQALEALSNQISLIDLGHFESERYFSQCLAKDLKNLPLQVIITVSKNPFQYFLEHHHHHH | soluble
5 | MKTFKAVRFQIVNEHGRIIEYELEDGVIINKEESGTGWLLEIVISNEHYETFKEYQDNEQLLDIRVVITRPANDPALFESTVKSIKNFKTTMSIVFECHIYTLRQQYAESLLEQLIDDGLSGEELKKSFNRMMQSKPKLKDEKLEELEHHHHHH | soluble
6 | MAHHHHHHMKTDDHLSQIHRMCRALGIRPGAPAPLIQPALTLQCPRLHTPMVVHEKPAAKIALPMLLSDSSGDVSYLAGQDSVGTLRMTPPGSPRTPALTSVSNMRHHAHLATSELPVSVLVASALSFVAAWRTEDSACTAQKDLIHCCLKARCDLELEEAGGRHRLNQLLLTVSEQMHRFVVMGEYSKFVVFCVDQEPVWRQAARQLQKENEARLHTTENIYSRFLMEEIAVSDKMRMFQEASDFVVSQGHAAREQRRRAQILAARRRCDRQSAPQETPMPFAPQSHLHPHQHKNESNAAALAGGWTPPQRQRPRDDSTDRRSGSSKERSSKNAKSHSTTEVDRYRQRWRKIIWFLSNGERGKPAPH | not soluble
7 | MYGKLLICATASINVININHYIVELKQHFDEVNILFSPSSKNFINTDVLKLFCDNLYDEIKDPLLNHINIVENHEYILVLPASANTINKIANGICDNLLTTVCLTGYQKLFIFPNMNIRMWGNPFLQKNIDLLKNNDVKVYSPDMNKSFEISSGRYKNNITMPNIENVLNFVLNNEKRPLD | soluble
